Source: patent publication US20190241671A1 (Merck KGaA, published 2019)
Substitutions are numbered along the chain they refer to.

B1: B4 VHv6/VKv4 antibody (antibody, V domains shown)
VH: QVQLEQPGAEVVKPGASVKVSCKTSGYTFTSNWMHWVKQRPGQGLEWIGEIDPSDSYTNYNQKFDGKAKLTVDKSSSTAYMEVSDLTSEDSATYYCARGSNPYYYAMDYWGQGTSVTVSS
VL: QIVLTQSPATLSASPGEKATMTCSASSGVNYMHWYQQKPGTSPKRWIYDTDKTASGVPARFSGSGSGTSYSLTISSMEAEDAATYYCHQRGSYTFGGGTKLEIK
notes: also called 10
B2: B4 VHv2/VKv1 antibody (antibody, V domains shown)
VH: B1 VH with E5Q, K19R, V20L, D65K, K69E, T93V
VL: B1 VL with V3A, S7E, T10I, L11M, A19V, D51S, T53L, A54D
B3: B4 VHv1/VKv1 antibody (antibody, V domains shown)
VH: B1 VH with E5Q, K19R, V20L, K23E, G42D, D65K, K69E, T93V
VL: B1 VL with V3A, S7E, T10I, L11M, A19V, D51S, T53L, A54D
B4: B4 VHv1/VKv2 antibody (antibody, V domains shown)
VH: B1 VH with E5Q, K19R, V20L, K23E, G42D, D65K, K69E, T93V
VL: B1 VL with Q1D, A19V, D51S, T53L, A54D
B5: B4 VHv2/VKv2 antibody (antibody, V domains shown)
VH: B1 VH with E5Q, K19R, V20L, D65K, K69E, T93V
VL: B1 VL with Q1D, A19V, D51S, T53L, A54D
B6: B4 VHv4/VKv3 antibody (antibody, V domains shown)
VH: B1 VH with R40T, Q43K, S88A
VL: B1 VL with V29A, D51S, T53L, S75E
B7: B4 VHv3/VKv4 antibody (antibody, V domains shown)
VH: B1 VH with V12K, T24A, D65K, S88A, T93V
VL: B1 VL
B8: B4 VH0/VK0 antibody (antibody, V domains shown)
VH: B1 VH with E5Q, K19R, V20L, D65K, D85S, T93V
VL: B1 VL with T10I, L11M, A19V, D51S, T53L
notes: Expressed from pdHL12 as intact heavy and light chains; also called parental B4 antibody
B9: B4 VHv5/VKv4 antibody (antibody, V domains shown)
VH: B1 VH with V12K, T24A, K38R, R40A, Q43K
VL: B1 VL
B10: B4 VHv4/VKv4 antibody (antibody, V domains shown)
VH: B1 VH with R40T, Q43K, S88A
VL: B1 VL
B11: B4 VHv3/VKv3 antibody (antibody, V domains shown)
VH: B1 VH with V12K, T24A, D65K, S88A, T93V
VL: B1 VL with V29A, D51S, T53L, S75E

What was measured:
[1] = molecular target: T1, CD19 antigen on Daudi lymphoma cells (human, UniProt P15391 20-556); assay: FACS competition on Daudi cells; unlabeled antibody 100 ng/ml (1x) vs competitor biotin-B4 VH0/VK0 100 ng/ml
T1 construct: whole, on cells; also called Daudi cells
T1 sequence (looked up): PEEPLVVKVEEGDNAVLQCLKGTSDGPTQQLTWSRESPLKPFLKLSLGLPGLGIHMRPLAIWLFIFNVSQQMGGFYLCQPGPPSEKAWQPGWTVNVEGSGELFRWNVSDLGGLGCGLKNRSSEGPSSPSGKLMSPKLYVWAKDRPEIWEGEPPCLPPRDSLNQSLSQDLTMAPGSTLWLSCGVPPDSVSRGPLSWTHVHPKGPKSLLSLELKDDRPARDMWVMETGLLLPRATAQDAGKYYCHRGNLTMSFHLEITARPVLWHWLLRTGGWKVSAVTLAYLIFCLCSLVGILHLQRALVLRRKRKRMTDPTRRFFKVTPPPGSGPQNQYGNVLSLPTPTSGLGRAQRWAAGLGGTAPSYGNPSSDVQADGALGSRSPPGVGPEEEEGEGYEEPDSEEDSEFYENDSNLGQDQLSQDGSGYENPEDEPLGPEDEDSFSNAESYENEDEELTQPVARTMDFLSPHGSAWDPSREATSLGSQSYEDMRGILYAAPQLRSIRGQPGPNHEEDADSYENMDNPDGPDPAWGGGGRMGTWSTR
Description: (§1) Briefly, a titration series was prepared of biotin-labeled B4 VH0/VK0 antibody pre-mixed at a final concentration of 100 ng/ml with one of the unlabeled, experimental B4 VHvx/VKvy antibodies at 800 ng/ml, 400 ng/ml, 200 ng/ml, 100 ng/ml, and 50 ng/ml in a PBS/2% serum buffer. As a control, the biotin-labeled antibody was pre-mixed with unlabeled B4 VH0/VK0 antibody at the same concentrations as above (inhibition control) or with buffer only (positive binding control). The combined antibodies were added to Daudi cells for 30 minutes at 4° C. A 1:200 dilution of FITC-labeled streptavidin was added to the cells and the samples were incubated for a further 30 minutes at 4° C. Bound amount of labeled B4 VH0/VK0 antibody was quantitated by FACS analysis, and the results were expressed as “percent inhibition,” relative to the positive binding control. The tested antibodies were B4 VH0/VK0 (C), B4 VHv1/VKv1 (1), B4 VHv2/VKv1 (2), B4 VHv1/VKv2 (3), B4 VHv2/VKv2 (4), B4 VHv3/VKv3 (5), B4 VHv4/VKv3 (6), B4 VHv3/VKv4 (7), B4 VHv4/VKv4 (8), B4 VHv5/VKv4 (9), and B4 VHv6/VKv4 (10).

[2] = molecular target: T1, CD19 antigen on Daudi lymphoma cells; assay: FACS competition on Daudi cells; unlabeled antibody 50 ng/ml (0.5x) vs competitor biotin-B4 VH0/VK0 100 ng/ml
Description: as §1

[3] = molecular target: T1, CD19 antigen on Daudi lymphoma cells; assay: FACS competition on Daudi cells; unlabeled antibody 800 ng/ml (8x) vs competitor biotin-B4 VH0/VK0 100 ng/ml
Description: as §1

[4] = molecular target: T1, CD19 antigen on Daudi lymphoma cells; assay: FACS competition on Daudi cells; unlabeled antibody 200 ng/ml (2x) vs competitor biotin-B4 VH0/VK0 100 ng/ml
Description: as §1

[5] = molecular target: T1, CD19 antigen on Daudi lymphoma cells; assay: FACS competition on Daudi cells; unlabeled antibody 400 ng/ml (4x) vs competitor biotin-B4 VH0/VK0 100 ng/ml
Description: as §1

[6] = molecular target: T1, CD19 antigen on Daudi lymphoma cells; assay: FACS competition on Daudi cells; unlabeled antibody 50 ng/ml (0.5x) vs competitor biotin-B4 VH0/VK0 100 ng/ml; remark: listed apart in the source
Description: as §1

[7] = molecular target: T1, CD19 antigen on Daudi lymphoma cells; assay: FACS competition on Daudi cells; unlabeled antibody 400 ng/ml (4x) vs competitor biotin-B4 VH0/VK0 100 ng/ml; remark: listed apart in the source
Description: as §1

[8] = molecular target: T1, CD19 antigen on Daudi lymphoma cells; assay: FACS competition on Daudi cells; unlabeled antibody 200 ng/ml (2x) vs competitor biotin-B4 VH0/VK0 100 ng/ml; remark: listed apart in the source
Description: as §1

[9] = molecular target: T1, CD19 antigen on Daudi lymphoma cells; assay: FACS competition on Daudi cells; unlabeled antibody 800 ng/ml (8x) vs competitor biotin-B4 VH0/VK0 100 ng/ml; remark: listed apart in the source
Description: as §1

[10] = molecular target: T1, CD19 antigen on Daudi lymphoma cells; assay: FACS competition on Daudi cells; unlabeled antibody 100 ng/ml (1x) vs competitor biotin-B4 VH0/VK0 100 ng/ml; remark: listed apart in the source
Description: as §1

Row | Binder | % inhibition of labeled B4 binding [1] [%] | % inhibition of labeled B4 binding [2] [%] | % inhibition of labeled B4 binding [3] [%] | % inhibition of labeled B4 binding [4] [%] | % inhibition of labeled B4 binding [5] [%] | % inhibition of labeled B4 binding [6] [%] | % inhibition of labeled B4 binding [7] [%] | % inhibition of labeled B4 binding [8] [%] | % inhibition of labeled B4 binding [9] [%] | % inhibition of labeled B4 binding [10] [%]
1 | B1 | 60 | 53 | 87 | 70 | 80 |  |  |  |  | 
2 | B2 |  |  |  |  |  | 8 | 40 | 28 | 56 | 16
3 | B3 |  |  |  |  |  | 12 | 44 | 28 | 56 | 16
4 | B4 |  |  |  |  |  | 12 | 44 | 32 | 56 | 20
5 | B5 |  |  |  |  |  | 8 | 44 | 32 | 56 | 16
6 | B6 |  |  |  |  |  | 12 | 44 | 32 | 56 | 16
7 | B7 |  |  |  |  |  | 12 | 52 | 36 | 60 | 20
8 | B8 | 67 | 50 | 93 | 83 | 90 | 16 | 56 | 44 | 68 | 28
9 | B9 | 57 | 47 | 90 | 70 | 87 |  |  |  |  | 
10 | B10 |  |  |  |  |  | 12 | 48 | 32 | 60 | 16
11 | B11 |  |  |  |  |  | 12 | 40 | 36 | 60 | 20
